From the supplement of paper PMC9112550, “Optimization of the antimicrobial peptide Bac7 by deep mutational scanning” (BMC Biology, 2022) come the findings set out here.
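Note: peptides expressed intracellularly from a pBAD plasmid library in pooled LB shake-flask culture, induced with 0.3% L-arabinose, DNA abundance read by NGS, three biological replicates, DESeq2 with apeglm shrinkage.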

The series relates to Escherichia coli TOP10. The experiment in a line: shrunken log2 fold change of peptide-encoding DNA abundance (4.5 h post-induction vs induction); higher = less antimicrobial activity (less host growth inhibition). As to conditions: time post-induction: 4.5 h; library: site-saturation at positions 5, 18, 19, 20.
In the case of RRIRLRPPRLPRPRPRPEGHPRP, the “shrunken log2 fold change” value is -0.107.
In the case of RRIRWRPPRLPRPRPRPCKCPRP it was -0.0392; in that of RRIRERPPRLPRPRPRPAMEPRP, -0.0417; in that of RRIRLRPPRLPRPRPRPFCAPRP, 0.106.
Then RRIRRRPPRLPRPRPRPFWPPRP, with 0.312.
Then RRIRARPPRLPRPRPRPLYLPRP, with -0.367; and RRIRYRPPRLPRPRPRPDYGPRP, with -0.205; and RRIRGRPPRLPRPRPRPRGQPRP, with 0.803.
On to RRIRFRPPRLPRPRPRPYQIPRP, for which the “shrunken log2 fold change” value was -0.471.
For the sequence RRIRDRPPRLPRPRPRPHNCPRP, the “shrunken log2 fold change” value came to 0.0686.
In the case of RRIRDRPPRLPRPRPRPWTTPRP it was -0.0204; in that of RRIRCRPPRLPRPRPRPFYAPRP, -0.813; in that of RRIRMRPPRLPRPRPRPMENPRP, 0.76.
In the case of RRIRIRPPRLPRPRPRPHRMPRP it was -1.01; in that of RRIRCRPPRLPRPRPRPGGFPRP, 0.146.
Then RRIRSRPPRLPRPRPRPQQGPRP, with 0.162; and RRIRPRPPRLPRPRPRPDLLPRP, with -0.0805.
As to RRIRVRPPRLPRPRPRPWYDPRP, the “shrunken log2 fold change” value was -0.00243.
Turning to RRIRCRPPRLPRPRPRPPKNPRP, the “shrunken log2 fold change” value is 0.5.
Consider RRIRNRPPRLPRPRPRPTFTPRP, for which the “shrunken log2 fold change” value was -0.245.
Then RRIRARPPRLPRPRPRPSTSPRP, with -0.322; and RRIRRRPPRLPRPRPRPRIKPRP, with 0.142; and RRIRWRPPRLPRPRPRPNKAPRP, with -0.00104.
Then RRIRFRPPRLPRPRPRPQPTPRP, with 0.597.
For RRIRMRPPRLPRPRPRPHKYPRP, the “shrunken log2 fold change” value is -0.152.
Then RRIRGRPPRLPRPRPRPTWDPRP, with 1.01; and RRIRRRPPRLPRPRPRPKNVPRP, with -0.00431.
Then RRIRQRPPRLPRPRPRPIINPRP, with -0.235; and RRIRFRPPRLPRPRPRPNTLPRP, with -0.239.
In the case of RRIRWRPPRLPRPRPRPWTIPRP it was -0.0951.
Consider RRIRQRPPRLPRPRPRPQGQPRP, for which the “shrunken log2 fold change” value was found to be 0.254.
In the case of RRIRVRPPRLPRPRPRPVGPPRP it was 0.0843; in that of RRIRCRPPRLPRPRPRPANLPRP, -0.687.
In the case of RRIRHRPPRLPRPRPRPCCNPRP it was 0.0722; in that of RRIRMRPPRLPRPRPRPGEMPRP, 0.0709; in that of RRIRLRPPRLPRPRPRPWLEPRP, -0.212.
On to RRIRSRPPRLPRPRPRPQRYPRP, for which the “shrunken log2 fold change” value is -0.167.
In the case of RRIRMRPPRLPRPRPRPKKGPRP it was 0.364; in that of RRIRWRPPRLPRPRPRPHYCPRP, -0.269.
In the case of RRIRDRPPRLPRPRPRPVSNPRP it was 0.00716; in that of RRIRMRPPRLPRPRPRPCYDPRP, 0.0509.
In the case of RRIRRRPPRLPRPRPRPNGRPRP it was -0.0152.
Regarding RRIRRRPPRLPRPRPRPICVPRP, the “shrunken log2 fold change” value was determined as 0.0261.
As for RRIRIRPPRLPRPRPRPPKQPRP, the “shrunken log2 fold change” value is -0.158.
As to RRIRQRPPRLPRPRPRPCHWPRP, the “shrunken log2 fold change” value is 0.018.
As to RRIRWRPPRLPRPRPRPGPPPRP, the “shrunken log2 fold change” value is 0.671.
Then RRIRVRPPRLPRPRPRPNSHPRP, with -0.402; and RRIRGRPPRLPRPRPRPMEMPRP, with 0.756; and RRIRIRPPRLPRPRPRPIMNPRP, with -1.27.
In the case of RRIRWRPPRLPRPRPRPPKNPRP it was 0.757; in that of RRIRMRPPRLPRPRPRPTIEPRP, 0.43; in that of RRIRPRPPRLPRPRPRPICWPRP, 0.0407.
Then RRIRLRPPRLPRPRPRPWVTPRP, with -0.145; and RRIRQRPPRLPRPRPRPYMEPRP, with -0.26.
For RRIRDRPPRLPRPRPRPWSWPRP, the “shrunken log2 fold change” value was determined as 0.215.
In the case of RRIRVRPPRLPRPRPRPNMQPRP it was -0.33; in that of RRIRGRPPRLPRPRPRPRKIPRP, 0.829; in that of RRIRCRPPRLPRPRPRPCRMPRP, -0.317.
Then RRIRPRPPRLPRPRPRPMTFPRP, with -0.0264; and RRIRDRPPRLPRPRPRPQFFPRP, with -0.00144.
Then RRIRNRPPRLPRPRPRPGQSPRP, with 0.108.
As to RRIRPRPPRLPRPRPRPESHPRP, the “shrunken log2 fold change” value is -0.00995.
Then RRIRGRPPRLPRPRPRPCCMPRP, with 0.474; and RRIRNRPPRLPRPRPRPDREPRP, with -0.149; and RRIRFRPPRLPRPRPRPFSSPRP, with -0.468.
Then RRIRSRPPRLPRPRPRPKISPRP, with 0.0778; and RRIRIRPPRLPRPRPRPKVIPRP, with 0.0457; and RRIRMRPPRLPRPRPRPGIKPRP, with 0.274.
Turning to RRIRPRPPRLPRPRPRPFYPPRP, the “shrunken log2 fold change” value is -0.854.
In the case of RRIRWRPPRLPRPRPRPKSCPRP it was 0.178.
In the case of RRIRKRPPRLPRPRPRPACKPRP it was 0.0609.
Turning to RRIRWRPPRLPRPRPRPKIHPRP, the “shrunken log2 fold change” value is -0.23.
In the case of RRIRRRPPRLPRPRPRPHSRPRP it was 0.163; in that of RRIRERPPRLPRPRPRPKALPRP, -0.113; in that of RRIRDRPPRLPRPRPRPTQLPRP, -0.0815.
As to RRIRLRPPRLPRPRPRPSVWPRP, the “shrunken log2 fold change” value came to 0.158.
In the case of RRIRGRPPRLPRPRPRPLMGPRP it was 0.373.
In the case of RRIRIRPPRLPRPRPRPVMSPRP it was -0.0169; in that of RRIRGRPPRLPRPRPRPCPYPRP, 0.0633.
RRIRPRPPRLPRPRPRPCMFPRP: the “shrunken log2 fold change” value was -0.577.
Then RRIRRRPPRLPRPRPRPSEEPRP, with 0.125.
In the case of RRIRHRPPRLPRPRPRPFEYPRP it was -0.219.
Then RRIRTRPPRLPRPRPRPNNWPRP, with -0.12; and RRIRDRPPRLPRPRPRPNYHPRP, with -0.359.
Consider RRIRQRPPRLPRPRPRPWKEPRP, for which the “shrunken log2 fold change” value is -0.103.
In the case of RRIRPRPPRLPRPRPRPNWMPRP it was 0.0917; in that of RRIRSRPPRLPRPRPRPECPPRP, -0.0934; in that of RRIRHRPPRLPRPRPRPCPRPRP, -0.28.
In the case of RRIRTRPPRLPRPRPRPFIIPRP it was -0.919; in that of RRIRPRPPRLPRPRPRPRQPPRP, 0.113; in that of RRIRWRPPRLPRPRPRPSQCPRP, 0.0963.
Then RRIRKRPPRLPRPRPRPVCEPRP, with 0.552.
RRIRNRPPRLPRPRPRPINAPRP: the “shrunken log2 fold change” value is -0.00965.
Then RRIRHRPPRLPRPRPRPHGKPRP, with -0.038; and RRIRARPPRLPRPRPRPAFWPRP, with 0.673.
Then RRIRDRPPRLPRPRPRPKSVPRP, with 0.0458.
Then RRIRPRPPRLPRPRPRPEKYPRP, with -0.562.
On to RRIRPRPPRLPRPRPRPGQMPRP, for which the “shrunken log2 fold change” value is -0.0125.
Then RRIRSRPPRLPRPRPRPRPLPRP, with 0.171; and RRIRTRPPRLPRPRPRPGNIPRP, with -0.0496; and RRIRHRPPRLPRPRPRPKCRPRP, with -0.163.
In the case of RRIRWRPPRLPRPRPRPPYYPRP it was -0.183; in that of RRIRLRPPRLPRPRPRPPMVPRP, -0.192.
Then RRIRSRPPRLPRPRPRPAGCPRP, with 0.459.
With RRIRDRPPRLPRPRPRPAKIPRP, the “shrunken log2 fold change” value was -0.00511.
In the case of RRIRYRPPRLPRPRPRPLRDPRP it was 0.0739.
Then RRIRTRPPRLPRPRPRPMLHPRP, with 0.111; and RRIRVRPPRLPRPRPRPVTMPRP, with -0.196; and RRIRGRPPRLPRPRPRPDYWPRP, with -0.027.
Then RRIRCRPPRLPRPRPRPGPMPRP, with 0.326; and RRIRFRPPRLPRPRPRPRCIPRP, with -0.606.
As to RRIRSRPPRLPRPRPRPLLIPRP, the “shrunken log2 fold change” value was -0.0597.
Then RRIRDRPPRLPRPRPRPQSCPRP, with -0.0045.
Then RRIRARPPRLPRPRPRPIDQPRP, with 0.444.
In the case of RRIRERPPRLPRPRPRPTERPRP it was 0.0425; in that of RRIRDRPPRLPRPRPRPHYPPRP, -0.265; in that of RRIRFRPPRLPRPRPRPNNHPRP, -0.571.
On to RRIRFRPPRLPRPRPRPPLHPRP, for which the “shrunken log2 fold change” value came out at 0.198.
Then RRIRLRPPRLPRPRPRPMMGPRP, with -0.0316.
In the case of RRIRMRPPRLPRPRPRPWVMPRP it was -0.022; in that of RRIRNRPPRLPRPRPRPEKRPRP, -0.0252; in that of RRIRQRPPRLPRPRPRPFTFPRP, -0.249.
Then RRIRPRPPRLPRPRPRPAAYPRP, with 0.0551; and RRIRRRPPRLPRPRPRPLCFPRP, with 0.898.
As to RRIRQRPPRLPRPRPRPFRPPRP, the “shrunken log2 fold change” value was -0.303.
